The results in this text go back to paper PMC11257983 (2024).

The chains are these.
B1: Flag-CNK^2–549 [Drosophila] / Myc-MEK [Drosophila] (parent)
chain 1: MSKNKLNLVLPPVNTEATVAAATVAPTPPFKTPSGTDTHSLLGKPKTSIDALTETLEGLDMGDTERKRIKMFLSQKEKIGELSDEDLEKLGELGSGNGGVVMKVRHTHTHLIMARKLIHLEVKPAIKKQILRELKVLHECNFPHIVGFYGAFYSDGEISICMEYMDGGSLDLILKRAGRIPESILGRITLAVLKGLSYLRDNHAIIHRDVKPSNILVNSSGEIKICDFGVSGQLIDSMANSFVGTRSYMSPERLQGTHYSVQSDIWSLGLSLVEMAIGMYPIPPPNTATLESIFADNAEESGQPTDEPRAMAIFELLDYIVNEPPPKLEHKIFSTEFKDFVDICLKKQPDERADLKTLLSHPWIRKAELEEVDISGWVCKTMDLPPSTPKRNTSPN
chain 2: AYINIAEWTPDQVTDWIKGLDESMKGYLYEFSKQEIGGRALLNIRPYELENLGMLRIGHQEIVLEAVENLRNFHYHLKNDNLQFMALHVATAAKNLHRELARNHAESTKIDTRILHDITRTIATLKPLVGSLERTPFRKQEMYREYCGNVLKCGLELATIAHRDRFALQPVPAIRQSAERLENLANFVIQDISDPMVLQPASLNLVTLKKRESELGFNIESSYNGIHRVTDIKYNSPAHNSGKIEDGDEIVQINYQTVVGWQHRTVLEHLREALPDVVLTVKKRPKHTKMFGQIYMQPYRLPSKKRNMAARWAAQMPSPRAAFLTLDTEQLATGGTGSAVPDPSKSLSSEKREVLTKANPVSSASDSDSSCSDIPTPTDPKLAAREIRLYYPKPRALLQRRNTICGCEYLSLKNSDLVVPSWHERKPGIGSPTNCDPGSPSIRDKSISFGYGLEMAARPTTCIGIAGDTSTDKARRMFHEARKLKQLTEDSQREFLVDRYKPGVSKVVRFDAKEDYVMKNEKFICNVENTILETFEPIPFADEGDEDA

One test covers variants of B1. Put plainly: GST pull-down, immunoblot quantification. The conditions noted are these: with Myc-MEK [Drosophila]; S2 cells; GST-HYP + RRKM (Ha-RASV12, Pyo-RAF, V5-KSR, Myc-MEK) co-expressed; captured via GST-HYP; anti-MEK blot; parent: 1. On the technique in general: Immunoblotting shows a protein as a band on a membrane.
Regarding chain 2 AYINIAEWTPDQVTDWIKGLDESMKGYLYEFSKQEIGGRALLNIRPYELENLGMLRIGHQEIVLEAVENLRNFHYHLKNDNLQFMALHVATAAKNLHRELARNHAESTKIDTRILHDITRTIATLKPLVGSLERTPFRKQEMYREYCGNVLKCGLELATIAHRDRFALQPVPAIRQSAERLENLANFVIQDISDPMVLAPASLNLVTLKKRESELGFNIESSYNGIHRVTDIKYNSPAHNSGKIEDGDEIVQINYQTVVGWQHRTVLEHLREALPDVVLTVKKRPKHTKMFGQIYMQPYRLPSKKRNMAARWAAQMPSPRAAFLTLDTEQLATGGTGSAVPDPSKSLSSEKREVLTKANPVSSASDSDSSCSDIPTPTDPKLAAREIRLYYPKPRALLQRRNTICGCEYLSLKNSDLVVPSWHERKPGIGSPTNCDPGSPSIRDKSISFGYGLEMAARPTTCIGIAGDTSTDKARRMFHEARKLKQLTEDSQREFLVDRYKPGVSKVVRFDAKEDYVMKNEKFICNVENTILETFEPIPFADEGDEDA [chain 2 Q199A], the ratio to parent amounted to 0.68.

Turning to chain 2 AYINIAEWTPDQVTDWIKGLDESMKGYLYEFSKQEIGGRALLNIRPYELENLGMLRIGHQEIVLEAVENLRNFHYHLKNDNLQFMALHVATAAKNLHRELARNHAESTKIDTRILHDITRTIATLKPLVGSLERTPFRKQEMYREYCGNVLKCGLELATIAHRDRFALQPVPAIRQSAERLENLANFVIQDISDPMELQPASLNLVTLKKRESELGFNIESSYNGIHRVTDIKYNSPAHNSGKIEDGDEIVQINYQTVVGWQHRTVLEHLREALPDVVLTVKKRPKHTKMFGQIYMQPYRLPSKKRNMAARWAAQMPSPRAAFLTLDTEQLATGGTGSAVPDPSKSLSSEKREVLTKANPVSSASDSDSSCSDIPTPTDPKLAAREIRLYYPKPRALLQRRNTICGCEYLSLKNSDLVVPSWHERKPGIGSPTNCDPGSPSIRDKSISFGYGLEMAARPTTCIGIAGDTSTDKARRMFHEARKLKQLTEDSQREFLVDRYKPGVSKVVRFDAKEDYVMKNEKFICNVENTILETFEPIPFADEGDEDA [chain 2 V197E], the ratio to parent was determined as 0.04.

Staying with this test, now noted: with Myc-MEK [Drosophila]; S2 cells; GST-HYP, V5-KSR, Myc-MEK co-expressed; captured via GST-HYP; anti-MEK blot; parent: 1.
In the case of chain 2 AYINIAEWTPDQVTDWIKGLDESMKGYLYEFSKQEIGGRALLNIRPYELENLGMLRIGHQEIVLEAVENLRNFHYHLKNDNLQFMALHVATAAKNLHRELARNHAESTKIDTRILHDITRTIATLKPLVGSLERTPFRKQEMYREYCGNVLKCGLELATIAHRDRFALQPVPAIRQSAERLENLANFVIQDISDPMVLAPASLNLVTLKKRESELGFNIESSYNGIHRVTDIKYNSPAHNSGKIEDGDEIVQINYQTVVGWQHRTVLEHLREALPDVVLTVKKRPKHTKMFGQIYMQPYRLPSKKRNMAARWAAQMPSPRAAFLTLDTEQLATGGTGSAVPDPSKSLSSEKREVLTKANPVSSASDSDSSCSDIPTPTDPKLAAREIRLYYPKPRALLQRRNTICGCEYLSLKNSDLVVPSWHERKPGIGSPTNCDPGSPSIRDKSISFGYGLEMAARPTTCIGIAGDTSTDKARRMFHEARKLKQLTEDSQREFLVDRYKPGVSKVVRFDAKEDYVMKNEKFICNVENTILETFEPIPFADEGDEDA [chain 2 Q199A], the ratio to parent came to 0.62.

As for chain 2 AYINIAEWTPDQVTDWIKGLDESMKGYLYEFSKQEIGGRALLNIRPYELENLGMLRIGHQEIVLEAVENLRNFHYHLKNDNLQFMALHVATAAKNLHRELARNHAESTKIDTRILHDITRTIATLKPLVGSLERTPFRKQEMYREYCGNVLKCGLELATIAHRDRFALQPVPAIRQSAERLENLANFVIQDISDPMELQPASLNLVTLKKRESELGFNIESSYNGIHRVTDIKYNSPAHNSGKIEDGDEIVQINYQTVVGWQHRTVLEHLREALPDVVLTVKKRPKHTKMFGQIYMQPYRLPSKKRNMAARWAAQMPSPRAAFLTLDTEQLATGGTGSAVPDPSKSLSSEKREVLTKANPVSSASDSDSSCSDIPTPTDPKLAAREIRLYYPKPRALLQRRNTICGCEYLSLKNSDLVVPSWHERKPGIGSPTNCDPGSPSIRDKSISFGYGLEMAARPTTCIGIAGDTSTDKARRMFHEARKLKQLTEDSQREFLVDRYKPGVSKVVRFDAKEDYVMKNEKFICNVENTILETFEPIPFADEGDEDA [chain 2 V197E], the ratio to parent worked out at 0.03.

Still in this test, the particulars now being: with Myc-MEK [Drosophila]; S2 cells; GST-HYP + RRKM co-expressed; captured via GST-HYP; anti-Myc (MEK) blot; parent: 1.
For chain 2 AYINIAEWTPDQVTDWIKGLDESMKGYLYEFSKQEIGGRALLNIRPYELENLGMLRIGHQEIVLEFVENLRNRHYHLKNDNLQFMALHVATAAKNLHRELARNHAESTKIDTRILHDITRTIATLKPLVGSLERTPFRKQEMYREYCGNVLKCGLELATIAHRDRFALQPVPAIRQSAERLENLANFVIQDISDPMVLQPASLNLVTLKKRESELGFNIESSYNGIHRVTDIKYNSPAHNSGKIEDGDEIVQINYQTVVGWQHRTVLEHLREALPDVVLTVKKRPKHTKMFGQIYMQPYRLPSKKRNMAARWAAQMPSPRAAFLTLDTEQLATGGTGSAVPDPSKSLSSEKREVLTKANPVSSASDSDSSCSDIPTPTDPKLAAREIRLYYPKPRALLQRRNTICGCEYLSLKNSDLVVPSWHERKPGIGSPTNCDPGSPSIRDKSISFGYGLEMAARPTTCIGIAGDTSTDKARRMFHEARKLKQLTEDSQREFLVDRYKPGVSKVVRFDAKEDYVMKNEKFICNVENTILETFEPIPFADEGDEDA [chain 2 A66F F73R], the ratio to parent was 0.48.
